Laboratory results published in paper PMC6952535.

Biological target: 6xHis-hSTAT3_(136-705) (human) (UniProt P40763)
Test: ITC

Chain of UniProt P40763 (P40763 136-705): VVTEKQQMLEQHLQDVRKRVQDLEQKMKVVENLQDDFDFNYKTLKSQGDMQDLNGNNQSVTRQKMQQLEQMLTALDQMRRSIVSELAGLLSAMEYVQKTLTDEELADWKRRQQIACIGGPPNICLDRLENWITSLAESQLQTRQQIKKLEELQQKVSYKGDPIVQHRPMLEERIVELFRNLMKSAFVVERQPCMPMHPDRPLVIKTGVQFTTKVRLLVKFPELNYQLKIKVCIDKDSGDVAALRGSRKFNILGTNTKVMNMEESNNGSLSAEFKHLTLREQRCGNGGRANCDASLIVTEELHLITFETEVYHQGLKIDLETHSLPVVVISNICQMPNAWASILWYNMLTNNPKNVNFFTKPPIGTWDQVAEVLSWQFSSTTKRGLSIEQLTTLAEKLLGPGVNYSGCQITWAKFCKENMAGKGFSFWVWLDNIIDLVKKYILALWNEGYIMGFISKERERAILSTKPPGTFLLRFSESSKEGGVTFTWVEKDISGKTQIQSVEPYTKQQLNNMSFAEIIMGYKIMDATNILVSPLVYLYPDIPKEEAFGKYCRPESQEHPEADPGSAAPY

Substance	Kd
SarA phospho-peptide (ten residues spanning the YxxQ motif, phosphorylated at Y167)	143 nM
gp130 phosphopeptide containing YxxQ (phosphorylated at Y767)	2290 nM
